In PMC7881018, “Granulovirus PK-1 kinase activity relies on a side-to-side dimerization mode centered on the regulatory αC helix” (Nature Communications, 2021):

How the values were obtained:
CpGV PK-1 = biological target: T1, CpGV PK-1 (Cydia pomonella granulosis virus (isolate Mexican), UniProt Q91F41); assay: X-ray crystal structure, […] A; type: binding; conditions: co-crystallised with 1 mM AMP and 10 mM MnCl2; ATP site; 18 C
T1 construct: gene orf3 pk-1; full-length (residues 1-279), E. coli expressed; assay protein codon-optimised, His6 tag cut by TEV; crystal protein amplified from genomic DNA, TEV-cleavable His6-MBP tag; homodimer 66 kDa

[1] = biological target: Cydia pomonella granulovirus protein kinase-1 (PK-1), full-length wild type (pPROEX Htb construct) (Cydia pomonella granulovirus (CpGV)); assay: SEC
[2] = biological target: Cydia pomonella granulovirus protein kinase-1 (PK-1), full-length wild type (pPROEX Htb construct) (Cydia pomonella granulovirus (CpGV)); assay: AUC; sedimentation velocity, 0.9 mg/mL (27 μM), 20 °C, 50,000 rpm, 20 mM HEPES pH 7.5, 200 mM NaCl; c(s) model
[3] = biological target: Cydia pomonella granulovirus protein kinase-1 (PK-1), full-length wild type (pPROEX Htb construct) (Cydia pomonella granulovirus (CpGV)); assay: SAXS with inline SEC; 5 mg/mL (152 μM) injected on Superdex 200 5/150 Increase, 20 mM HEPES pH 7.5, 200 mM NaCl, 5% glycerol, 12 °C; scatter compared with the crystal dimer (CRYSOL), mass by SAXSMoW2
[4] = biological target: PK-1 15-279, truncated PK-1 lacking the domain-swapped N-terminal helix (Cydia pomonella granulovirus (CpGV)); assay: SEC
[5] = biological target: PK-1 D141N, full length (Cydia pomonella granulovirus (CpGV)); assay: SEC
[6] = biological target: PK-1 D160N, full length (Cydia pomonella granulovirus (CpGV)); assay: SEC
[7] = biological target: PK-1 E217DNEEE>QNNQQQ, acidic αF-αG loop mutant (Cydia pomonella granulovirus (CpGV)); assay: SEC
[8] = biological target: PK-1 K49A, full length (Cydia pomonella granulovirus (CpGV)); assay: SEC

Compound: Nc1ncnc2c1ncn2[C@@H]1O[C@H](COP(=O)(O)O)[C@@H](O)[C@H]1O [AMP]
- X-ray crystal structure, 2.01 A (CpGV PK-1): crystal structure of PK-1 from C. pomonella granulovirus (CpGV) in complex with AMP

Compound: Cydia pomonella granulovirus protein kinase-1 (PK-1), full-length wild type (pPROEX Htb construct) (enzyme)
- stoichiometry N [1]: 2
- stoichiometry N [2]: 2
- stoichiometry N [3]: 2

Compound: PK-1 15-279, truncated PK-1 lacking the domain-swapped N-terminal helix (domain or fragment)
- stoichiometry N [4]: 2

Compound: PK-1 D141N, full length (enzyme)
- stoichiometry N [5]: 2

Compound: PK-1 D160N, full length (enzyme)
- stoichiometry N [6]: 2

Compound: PK-1 E217DNEEE>QNNQQQ, acidic αF-αG loop mutant (enzyme)
- stoichiometry N [7]: 2

Compound: PK-1 K49A, full length (enzyme)
- stoichiometry N [8]: 2
